Measurements published in patent publication US20240000938A1 (A2 BIOTHERAPEUTICS, published 2024).

What was measured:
[1] = biological target: HLA-A*02 / HA-1(H) peptide … on T2 cells (human); experiment: cell-based or functional assay
[2] = biological target: HLA-A*02 on cells (human); experiment: cell-based or functional assay

Emax shifted downward (KRAS TCR) [1] | Emax shifted downward (NY-ESO-1 TCR) [1] | additional right shift in activity of the NY-ESO-1 TCR [1] | block of KRAS TCR activity [1] | EC50 right shift of the NY-ESO-1 TCR [2] | Binder
2.7 fold | 1.5 fold | ~10 fold | ~5 fold | – | HA-1 Ftcr blocker (TCR, V domains shown) V domain 1: KNEVEQSPQNLTAQEGEFITINCSYSVGISALHWLQQHPGGGIVSLFMLSSGKKKHGRLIATINIQEKHSSLHITASHPRDSAVYICAVRSVSGAGSYQLTFGKGTKLSVIP V domain 2: DTGVSQNPRHKITKRGQNVTFRCDPISEHNRLYWYRQTLGQGPEFLTYFQNEAQLEKSRLLSDRFSAERPKGSFSTLEIQRTEQGDSAMYLCASSIDSFNEQFFGPGTRLTVLE
– | – | – | – | ~30 fold | VLHDDLLEA [HA-1(H) peptide VLHDDLLEA]
